From article PMC3168947 (Molecular cell, 2011)
Several values for one entry are separate records, joined by “and”; a condition that tells them apart may be missing. Equal values may be shown once. Read-outs that look alike come from different tables or passages of the source. No end group written: not given here.

Experiments:
ClpA6 = ClpA6 (Escherichia coli, UniProt P0A8Q6+P0ABH9, C101S/C73V/E96C); type: binding, E. coli; settings: for ClpA6 bound ClpS*^F more tightly, fold: excess peptide, compared with […] peptide or absence of ligand; for Kapp of ClpA6 for ClpS*^F in presence of peptide: fluorescence anisotropy, 200 nM ClpS*^F, 20 μM peptide, ATPγS, Fig. 3A
[1] = molecular target: fluorescent N-end-rule peptide …-fl; assay: fluorescence polarisation
[2] = molecular target: ClpS*^F variant with NTE deletion (E. coli); assay: fluorescence polarisation
ClpAP = assay: ClpAPS degradation of YLFVQELA-GFP; type: biochemical, E. coli; settings: for K2 (unimolecular engagement step, global fit): YLFVQELA-GFP degradation, Vmax = Etotal•kdeg/(1+K2), KM = K1•K2/(1+K2); for K2 (unimolecular engagement step, global fit) / steady-state degradation kinetics, in words / reduction in Vmax compared to ClpS, fold: Fig. 4B; for steady-state degradation kinetics, in words / reduction in Vmax compared to ClpS, fold: 100 nM ClpA6, 200 nM ClpP14; for steady-state degradation kinetics, in words: 600 nM ClpS or variants; for reduction in Vmax compared to ClpS, fold: 600 nM ClpS variant
[3] = molecular target: T1, fluorescent N-end-rule peptide LLYVQRDSKEC-fl; assay: fluorescence polarisation
T1 peptide: LLYVQRDSKEC(fluorescein maleimide)

[4] = molecular target: T2, ClpA6 (hexameric ClpA unfoldase, stabilised by ATPγS) (E. coli, UniProt P0ABH9 1-758); assay: fluorescence polarisation
T2 sequence (looked up): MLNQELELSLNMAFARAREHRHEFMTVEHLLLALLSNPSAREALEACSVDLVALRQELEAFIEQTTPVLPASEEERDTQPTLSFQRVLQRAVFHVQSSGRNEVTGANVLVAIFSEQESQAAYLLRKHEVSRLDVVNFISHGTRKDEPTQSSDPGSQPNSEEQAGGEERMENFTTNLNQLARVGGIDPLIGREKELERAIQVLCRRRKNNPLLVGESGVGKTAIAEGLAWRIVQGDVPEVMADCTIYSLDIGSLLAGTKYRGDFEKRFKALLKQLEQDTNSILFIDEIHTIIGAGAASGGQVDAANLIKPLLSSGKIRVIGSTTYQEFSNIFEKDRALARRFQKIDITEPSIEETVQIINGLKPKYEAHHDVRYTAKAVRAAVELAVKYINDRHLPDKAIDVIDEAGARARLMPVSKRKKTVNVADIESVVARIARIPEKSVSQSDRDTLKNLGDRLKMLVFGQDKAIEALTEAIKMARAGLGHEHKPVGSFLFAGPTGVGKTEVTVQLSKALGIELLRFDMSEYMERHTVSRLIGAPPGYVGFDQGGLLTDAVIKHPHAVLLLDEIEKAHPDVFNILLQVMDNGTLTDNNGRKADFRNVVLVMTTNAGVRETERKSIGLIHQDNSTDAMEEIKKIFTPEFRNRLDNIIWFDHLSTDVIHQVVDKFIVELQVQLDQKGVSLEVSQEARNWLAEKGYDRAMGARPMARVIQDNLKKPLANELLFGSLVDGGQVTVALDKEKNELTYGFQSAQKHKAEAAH

[5] = molecular target: T2, ClpA6 (hexameric ClpA unfoldase, …); assay: fluorescence polarisation; remark: listed apart in the source

Trp-CONH2
ClpA6 bound ClpS*^F more tightly, fold (ClpA6): at least 9 fold

ClpS in complex with the ClpA N domain (from UniProt P0A8Q6 1-106)
Kd [1]: 3 µM

MLYVQRDSKEC
Kapp of ClpA6 for ClpS*^F in presence of peptide (ClpA6): ~ 180 nM

Phe-Val [FV]
ClpA6 bound ClpS*^F more tightly, fold (ClpA6): at least 9 fold | Kapp of ClpA6 for ClpS*^F in presence of peptide (ClpA6): < 20 nM

B1: ClpA6 (hexameric ClpA unfoldase, stabilised by ATPγS) (enzyme)
chain: MLNQELELSLNMAFARAREHRHEFMTVEHLLLALLSNPSAREALEACSVDLVALRQELEAFIEQTTPVLPASEEERDTQPTLSFQRVLQRAVFHVQSSGRNEVTGANVLVAIFSEQESQAAYLLRKHEVSRLDVVNFISHGTRKDEPTQSSDPGSQPNSEEQAGGEERMENFTTNLNQLARVGGIDPLIGREKELERAIQVLCRRRKNNPLLVGESGVGKTAIAEGLAWRIVQGDVPEVMADCTIYSLDIGSLLAGTKYRGDFEKRFKALLKQLEQDTNSILFIDEIHTIIGAGAASGGQVDAANLIKPLLSSGKIRVIGSTTYQEFSNIFEKDRALARRFQKIDITEPSIEETVQIINGLKPKYEAHHDVRYTAKAVRAAVELAVKYINDRHLPDKAIDVIDEAGARARLMPVSKRKKTVNVADIESVVARIARIPEKSVSQSDRDTLKNLGDRLKMLVFGQDKAIEALTEAIKMARAGLGHEHKPVGSFLFAGPTGVGKTEVTVQLSKALGIELLRFDMSEYMERHTVSRLIGAPPGYVGFDQGGLLTDAVIKHPHAVLLLDEIEKAHPDVFNILLQVMDNGTLTDNNGRKADFRNVVLVMTTNAGVRETERKSIGLIHQDNSTDAMEEIKKIFTPEFRNRLDNIIWFDHLSTDVIHQVVDKFIVELQVQLDQKGVSLEVSQEARNWLAEKGYDRAMGARPMARVIQDNLKKPLANELLFGSLVDGGQVTVALDKEKNELTYGFQSAQKHKAEAAH
fold reduction of affinity against ClpS*^F [2]: 10 fold

B2: *L13 ClpS with ClpA6 (complex, E. coli)
chain 1: MLNQELELSLNMAFARAREHRHEFMTVEHLLLALLSNPSAREALEACSVDLVALRQELEAFIEQTTPVLPASEEERDTQPTLSFQRVLQRAVFHVQSSGRNEVTGANVLVAIFSEQESQAAYLLRKHEVSRLDVVNFISHGTRKDEPTQSSDPGSQPNSEEQAGGEERMENFTTNLNQLARVGGIDPLIGREKELERAIQVLCRRRKNNPLLVGESGVGKTAIAEGLAWRIVQGDVPEVMADCTIYSLDIGSLLAGTKYRGDFEKRFKALLKQLEQDTNSILFIDEIHTIIGAGAASGGQVDAANLIKPLLSSGKIRVIGSTTYQEFSNIFEKDRALARRFQKIDITEPSIEETVQIINGLKPKYEAHHDVRYTAKAVRAAVELAVKYINDRHLPDKAIDVIDEAGARARLMPVSKRKKTVNVADIESVVARIARIPEKSVSQSDRDTLKNLGDRLKMLVFGQDKAIEALTEAIKMARAGLGHEHKPVGSFLFAGPTGVGKTEVTVQLSKALGIELLRFDMSEYMERHTVSRLIGAPPGYVGFDQGGLLTDAVIKHPHAVLLLDEIEKAHPDVFNILLQVMDNGTLTDNNGRKADFRNVVLVMTTNAGVRETERKSIGLIHQDNSTDAMEEIKKIFTPEFRNRLDNIIWFDHLSTDVIHQVVDKFIVELQVQLDQKGVSLEVSQEARNWLAEKGYDRAMGARPMARVIQDNLKKPLANELLFGSLVDGGQVTVALDKEKNELTYGFQSAQKHKAEAAH
chain 2: MLAEEKVRDALKPPSMYKVILVNDDYTPMEFVIDVLQKFFSYDVERATQLMLAVHYQGKAICGVFTAEVAETKVAMVNKYARENEHPLLCTLEKA
K2 (unimolecular engagement step, global fit) (ClpAP): 0.74 | steady-state degradation kinetics, in words (ClpAP; YLFVQELA-GFP): roughly similar steady-state degradation kinetics | reduction in Vmax compared to ClpS, fold (ClpAP; YLFVQELA-GFP): 1.3 fold | delivery of N-end-rule substrate for ClpAP degradation (ClpAP; YLFVQELA-GFP, ClpS variants, in words): mediated efficient substrate degradation | Kd [3]: 0.1 µM

B3: *A14 ClpS with ClpA6 (complex, E. coli)
chain 1: MLNQELELSLNMAFARAREHRHEFMTVEHLLLALLSNPSAREALEACSVDLVALRQELEAFIEQTTPVLPASEEERDTQPTLSFQRVLQRAVFHVQSSGRNEVTGANVLVAIFSEQESQAAYLLRKHEVSRLDVVNFISHGTRKDEPTQSSDPGSQPNSEEQAGGEERMENFTTNLNQLARVGGIDPLIGREKELERAIQVLCRRRKNNPLLVGESGVGKTAIAEGLAWRIVQGDVPEVMADCTIYSLDIGSLLAGTKYRGDFEKRFKALLKQLEQDTNSILFIDEIHTIIGAGAASGGQVDAANLIKPLLSSGKIRVIGSTTYQEFSNIFEKDRALARRFQKIDITEPSIEETVQIINGLKPKYEAHHDVRYTAKAVRAAVELAVKYINDRHLPDKAIDVIDEAGARARLMPVSKRKKTVNVADIESVVARIARIPEKSVSQSDRDTLKNLGDRLKMLVFGQDKAIEALTEAIKMARAGLGHEHKPVGSFLFAGPTGVGKTEVTVQLSKALGIELLRFDMSEYMERHTVSRLIGAPPGYVGFDQGGLLTDAVIKHPHAVLLLDEIEKAHPDVFNILLQVMDNGTLTDNNGRKADFRNVVLVMTTNAGVRETERKSIGLIHQDNSTDAMEEIKKIFTPEFRNRLDNIIWFDHLSTDVIHQVVDKFIVELQVQLDQKGVSLEVSQEARNWLAEKGYDRAMGARPMARVIQDNLKKPLANELLFGSLVDGGQVTVALDKEKNELTYGFQSAQKHKAEAAH
chain 2: MAEEKVRDALKPPSMYKVILVNDDYTPMEFVIDVLQKFFSYDVERATQLMLAVHYQGKAICGVFTAEVAETKVAMVNKYARENEHPLLCTLEKA
K2 (unimolecular engagement step, global fit) (ClpAP): 9.2 | steady-state degradation kinetics, in words (ClpAP; YLFVQELA-GFP): substantial decrease in Vmax | reduction in Vmax compared to ClpS, fold (ClpAP; YLFVQELA-GFP): 7.5 fold | Kd [3]: 0.13 µM

B4: *V18 ClpS with ClpA6 (complex, E. coli)
chain 1: MLNQELELSLNMAFARAREHRHEFMTVEHLLLALLSNPSAREALEACSVDLVALRQELEAFIEQTTPVLPASEEERDTQPTLSFQRVLQRAVFHVQSSGRNEVTGANVLVAIFSEQESQAAYLLRKHEVSRLDVVNFISHGTRKDEPTQSSDPGSQPNSEEQAGGEERMENFTTNLNQLARVGGIDPLIGREKELERAIQVLCRRRKNNPLLVGESGVGKTAIAEGLAWRIVQGDVPEVMADCTIYSLDIGSLLAGTKYRGDFEKRFKALLKQLEQDTNSILFIDEIHTIIGAGAASGGQVDAANLIKPLLSSGKIRVIGSTTYQEFSNIFEKDRALARRFQKIDITEPSIEETVQIINGLKPKYEAHHDVRYTAKAVRAAVELAVKYINDRHLPDKAIDVIDEAGARARLMPVSKRKKTVNVADIESVVARIARIPEKSVSQSDRDTLKNLGDRLKMLVFGQDKAIEALTEAIKMARAGLGHEHKPVGSFLFAGPTGVGKTEVTVQLSKALGIELLRFDMSEYMERHTVSRLIGAPPGYVGFDQGGLLTDAVIKHPHAVLLLDEIEKAHPDVFNILLQVMDNGTLTDNNGRKADFRNVVLVMTTNAGVRETERKSIGLIHQDNSTDAMEEIKKIFTPEFRNRLDNIIWFDHLSTDVIHQVVDKFIVELQVQLDQKGVSLEVSQEARNWLAEKGYDRAMGARPMARVIQDNLKKPLANELLFGSLVDGGQVTVALDKEKNELTYGFQSAQKHKAEAAH
chain 2: MVRDALKPPSMYKVILVNDDYTPMEFVIDVLQKFFSYDVERATQLMLAVHYQGKAICGVFTAEVAETKVAMVNKYARENEHPLLCTLEKA
Kd [3]: 0.083 µM

B5: ClpS*^F bound to the N-end-rule peptide LLYVQRDSKEC (complex, E. coli)
chain: MGKTNDWLDFDQLAEEKVRDALKPPSMYKVILVNDDYTPMEFVIDVLQKFFSYDVERATQLMLAVHYQGKAIVGVFTAEVAETKVAMVNKYARENCHPLLSTLEKA
peptide: LLYVQRDSKEC
modifications: fluorescein maleimide on the single cysteine
Kd [4]: < 0.02 µM and 0.02 µM

B6: ^H66AClpS*^F bound to the N-end-rule peptide LLYVQRDSKEC (complex, E. coli)
chain: MGKTNDWLDFDQLAEEKVRDALKPPSMYKVILVNDDYTPMEFVIDVLQKFFSYDVERATQLMLAVAYQGKAIVGVFTAEVAETKVAMVNKYARENCHPLLSTLEKA
peptide: LLYVQRDSKEC
modifications: fluorescein maleimide on the single cysteine
Kd [4]: 0.178 ± 0.004 µM

B7: ^H66AClpS*^F (natural protein, E. coli, UniProt P0A8Q6 1-106, looked up)
chain: MGKTNDWLDFDQLAEEKVRDALKPPSMYKVILVNDDYTPMEFVIDVLQKFFSYDVERATQLMLAVAYQGKAIVGVFTAEVAETKVAMVNKYARENCHPLLSTLEKA
modifications: fluorescein maleimide on the single cysteine
Kd [5]: 0.345 ± 0.003 µM
